Laboratory results from US20160326219A1, “OPTICALLY ACTIVATED RECEPTORS” (IST AUSTRIA (INSTITUTE OF SCIENCE AND TECHNOLOGY AUSTRIA), priority 2013, published 2016).

Experiments:
M38K cells [1] = test: All optical evaluation of pharmacological compounds / cell morphology, M38K cells stably expressing Opto-mFGFR1; format: cell-based, human; conditions: M38K cells; blue light (Opto-mFGFR1) or added growth factor
From the text: M38K and SPC212, two malignant pleural mesothelioma cell lines, were maintained in RPMI1640 supplemented with 10% FBS. Telomerase-immortalized microvascular hBE cells were maintained in Clonetics EGM2 MV endothelial growth medium (Lonza, Wakersville, Md.) supplemented with 5% FBS. For retrovirus generation, Opto-mFGFR1 or mCherry as control was subcloned into pQCXIP (Clontech, Mountain View, Calif.) using EcoRI and NotI restriction enzymes. Viral particles were generated in HEK293 cells by co-transfection with the helper plasmids pVSV-G and p-gag-pol-gpt. Supernatants were used to transduce M38K, SPC212 or hBE cells grown to 50% confluency in 6-well plates. Cells were selected with 0.8 μg/ml puromycin for 10 d and transgene expression was verified by immunoblotting.
10^5 M38K cells were seeded in each well of 6-well plates. After 24 h, cells were stimulated for 1 h or kept in the dark. FGF2 (Sigma) or PD166866 (Pfizer Global Research and Development, New London, Conn.) were added as indicated. After additional 24 h, cells were photographed on the Nikon Ti300 microscope. For quantification of cell morphology, all cell perimeters in randomly selected sections of phase contrast images were traced and aspect ratios (defined as length of major axis divided by length of minor axis of a fitted ellipse) calculated with ImageJ software (National Institute of Health). Greater than 50 individual values contributed to each average.
For M38K cells, cell morphology was evaluated as described above but followed by automated image analysis. Phase contrast images (typically three images from two wells) were automatically analyzed. Images were converted to greyscale, resized and divided into segments for local threshold correction (threshold was defined as most probably intensity multiplied by a constant factor of 0.85; Igor Pro, Wavemetrics, Lake Oswego, Oreg.). Cells were identified and measured in FIJI/ImageJ (Max Planck Society/National Institutes of Health; size limit: 40 to 600 pixel̂2, circularity limit: 0.01 to 1.00). Occasionally, outliers were removed manually. Typically 200 to 1800 individual values contributed to the averages of FIG. 9. For HEK293 cells, MAPK pathway activation was measured using luciferase as described above.

hBE cells = test: In vitro angiogenesis (sprouting) assay (hBE cells); format: cell-based; conditions: hBE cell spheroids, FIGS. 7b and c
Description: For spheroid generation, hBE cells were suspended as hanging drops (450 cells in a 25 μl drop) in M199 medium (Sigma) supplemented with 10% FBS, L-glutamine, 2.2 g/I NaHCO3 and 20% methylcellulose (Sigma) over night in a standard tissue culture incubator. The following day, spheroids were washed in PBS containing 10% FBS, centrifuged, resuspended in Methocel/20% FBS, mixed (1:1) with neutralized rat-tail collagen and seeded into non-adhesive 24-well plates (Greiner Bio-one, Kremsmünster, Austria). After solidification of the collagen, VEGFA (30 ng/ml) or PD166866 (10 μM) were added. Plates were stimulated with light for 5 min every 20 min for 10 h or kept in the dark. After stimulation, 1 ml of 8% paraformaldehyde was added to each well and spheroids were photographed on the Nikon microscope. Cumulative sprout lengths per sphere from at least 8 spheroids per group were measured (ImageJ).

[2] = test system: mFGFR1-related signaling pathways; test: Detection of additional signaling pathways, Cignal Reporter assays (HEK293 cells); format: cell-based, human; conditions: ~3 μW/mm^2, FIG. 3
Description: Activation of additional mFGFR1-related signaling pathways was assayed with Cignal Reporter assays (Qiagen, Hilden, Germany) consisting of mixtures of inducible pathway focused transcription factor-responsive firefly luciferase constructs and a constitutively expressing Renilla luciferase construct. Cells were transfected with 100.3 ng total DNA per well (receptor and reporter at ratio of 1:300) using Lipofectamine 2000 and thereafter treated as described above for detection of MAPK signaling. Cells were processed with the Dual-Glo® Luciferase Assay System (Promega) and signals detected with the microplate reader.

M38K cells [3] = test: Cell proliferation, EdU incorporation (M38K cells); format: cell-based, human
Description: 2×10^4 M38K cells were seeded in each well of 96-well plates. After 24 h, cells were stimulated for 1 h or kept in the dark. FGF2 (Sigma, St. Louis, Mo.) was added as indicated. After 24 h, cells were incubated with 10 μM EdU for 2 h. Subsequently, newly synthesized DNA was stained with Click-iT EdU (Life Technologies) following the manufacturer's protocol and counterstained with 5 μg/ml Hoechst dye. Cells were photographed on a Nikon Ti300 inverted microscope. To determine the percentage of cells with newly synthesized DNA, Hoechst positive nuclei and EdU positive nuclei were counted.

B1: Opto-mFGFR1: chimeric receptor of mFGFR1 intracellular domain and VfAU1-LOV, SEQ ID NO: 58 (protein)
chain: MGSSKSKPKDPSQRLDMKSGTKKSDFHSQMAVHKLAKSIPLRRQVTVSADSSASMNSGVLLVRPSRLSSSGTPMLAGVSEYELPEDPRWELPRDRLVLGKPLGEGCFGQVVLAEAIGLDKDKPNRVTKVAVKMLKSDATEKDLSDLISEMEMMKMIGKHKNIINLLGACTQDGPLYVIVEYASKGNLREYLQARRPPGLEYCYNPSHNPEEQLSSKDLVSCAYQVARGMEYLASKKCIHRDLAARNVLVTEDNVMKIADFGLARDIHHIDYYKKTTNGRLPVKWMAPEALFDRIYTHQSDVWSFGVLLWEIFTLGGSPYPGVPVEELFKLLKEGHRMDKPSNCTNELYMMMRDCWHAVPSQRPTFKQLVEDLDRIVALTSNQEYLDLSIPLDQYSPSFPDTRSSTCSSGEDSVFSHEPLPEEPCLPRHPTQLANSGLKRRVETGPDYSLVKALQMAQQNFVITDASLPDNPIVYASRGFLTLTGYSLDQILGRNCRFLQGPETDPRAVDKIRNAITKGVDTSVCLLNYRQDGTTFWNLFFVAGLRDSKGNIVNYVGVQSKVSEDYAKLLVNEQNIEYKGVRTSNMLRRKTGGSGVDYPYDVPDYALD
modifications: mFGFR1-VfAU1-LOV
- Cell morphology response (M38K cells [1]): EMT-like morphological alterations
- Morphological alterations (sprouting) upon blue light illumination (hBE cells): induced morphological alterations
- Activation of additional pathways linked to mFGFR1 in response to blue light [2]: activates
- Proliferation (% of nuclei incorporating 5-ethynyl-2'-deoxyuridine) upon light stimulation (M38K cells [3]): increased proliferation
